These results are taken from PMC3946611, “hCLE/C14orf166 Associates with DDX1-HSPC117-FAM98B in a Novel Transcription-Dependent Shuttling RNA-Transporting Complex” (PLoS ONE, 2014).

As a reminder, the stoichiometry N is a count of units in the complex or per binding partner.

This data set concerns the molecule itself. The data set can be described thus: native gel or EMSA; purified hCLE-CBD, dialyzed, non-denaturing gel, Western blot against hCLE. (A gel shift assay detects complexes by their altered migration in electrophoresis.)

B1: hCLE-TAP tagged protein, purified as hCLE-CBD (natural protein, human, UniProt Q9Y224 1-244, looked up)
chain: MFRRKLTALDYHNPAGFNCKDETEFRNFIVWLEDQKIRHYKIEDRGNLRNIHSSDWPKFFEKYLRDVNCPFKIQDRQEAIDWLLGLAVRLEYGDNAEKYKDLVPDNSKTADNATKNAEPLINLDVNNPDFKAGVMALANLLQIQRHDDYLVMLKAIRILVQERLTQDAVAKANQTKEGLPVALDKHILGFDTGDAVLNEAAQILRLLHIEELRELQTKINEAIVAVQAIIADPKTDHRLGKVGR
notes: hCLE/C14orf166, human; In the cells the protein carries the whole TAP tag (hCLE-TAP); after the TEV step of the purification it is hCLE-CBD; also called hCLE/C14orf166; protein C14orf166 (CLE); source: HEK293T, transfected with pChCLE-TAP; TAP purified (IgG-Sepharose, Calmodulin-Agarose) from total, nuclear or cytosolic extracts
With B1, the “stoichiometry N” value was 2.
